Measurements from patent US11427805B2, “Methods of producing human foregut endoderm cells expressing PDX1 from human definitive endoderm” (ViaCyte, Inc., priority 2005, dated 2022).

Legend:
Format in all cases: cell-based, human
SOX17 gene expression = experiment: Q-PCR of SOX17 gene expression in differentiating hESCs
Method: In the following experiments, real-time quantitative RT-PCR (Q-PCR) was the primary assay used for screening the effects of various treatments on hESC differentiation. In particular, real-time measurements of gene expression were analyzed for multiple marker genes at multiple time points by Q-PCR. Marker genes characteristic of the desired as well as undesired cell types were evaluated to gain a better understanding of the overall dynamics of the cellular populations. The strength of Q-PCR analysis includes its extreme sensitivity and relative ease of developing the necessary markers, as the genome sequence is readily available. Furthermore, the extremely high sensitivity of Q-PCR permits detection of gene expression from a relatively small number of cells within a much larger population. In addition, the ability to detect very low levels of gene expression provides indications for “differentiation bias” within the population. The bias towards a particular differentiation pathway, prior to the overt differentiation of those cellular phenotypes, is unrecognizable using immunocytochemical techniques. […] Additionally, Q-PCR provides a mechanism by which to evaluate the success of a differentiation protocol in a quantitative format at semi-high throughput scales of analysis.
The approach taken here was to perform relative quantitation using SYBR Green chemistry on a Rotor Gene 3000 instrument (Corbett Research) and a two-step RT-PCR format. Such an approach allowed for the banking of cDNA samples for analysis of additional marker genes in the future, thus avoiding variability in the reverse transcription efficiency between samples.
To generate PCR template, total RNA was isolated using RNeasy (Qiagen) and quantitated using RiboGreen (Molecular Probes). Reverse transcription from 350-500 ng of total RNA was carried out using the iScript reverse transcriptase kit (BioRad), which contains a mix of oligo-dT and random primers. Each 20 μL reaction was subsequently diluted up to 100 μL total volume and 3 μL was used in each 10 μL Q-PCR reaction containing 400 nM forward and reverse primers and 5 μL 2×SYBR Green master mix (Qiagen). Two step cycling parameters were used employing a 5 second denature at 85-94° C. (specifically selected according to the melting temp of the amplicon for each primer set) followed by a 45 second anneal/extend at 60° C. Fluorescence data was collected during the last 15 seconds of each extension phase. A three point, 10-fold dilution series was used to generate the standard curve for each run and cycle thresholds (Ct's) were converted to quantitative values based on this standard curve. The quantitated values for each sample were normalized to housekeeping gene performance and then average and standard deviations were calculated for triplicate samples. At the conclusion of PCR cycling, a melt curve analysis was performed to ascertain the specificity of the reaction. A single specific product was indicated by a single peak at the Tm appropriate for that PCR amplicon.
A first step in establishing the Q-PCR methodology was validation of appropriate housekeeping genes (HGs) in the experimental system. […] We measured the expression levels of Cyclophilin G, hypoxanthine phosphoribosyltransferase 1 (HPRT), beta-2-microglobulin, hydroxymethylbiane synthase (HMBS), TATA-binding protein (TBP), and glucoronidase beta (GUS) in differentiating hESCs. […] We routinely used both Cyclophilin G and GUS to calculate a normalization factor for all samples. The use of multiple HGs simultaneously reduces the variability inherent to the normalization process and increases the reliability of the relative gene expression values.
We were the first to analyze and describe the effect of TGFβ family growth factors, such as Nodal/activin/BMP, for use in creating definitive endoderm cells from embryonic stem cells in in vitro cell cultures. […]

hESCs [1] = experiment: Antibody labeling (immunocytochemistry) of differentiating hESCs for SOX17 and AFP
From the text: However, AFP and SOX7 are not expressed in definitive endoderm cells at levels detectable by ICC, and thus, they can be employed as negative markers for bonifide definitive endoderm cells. It was shown that SOX17 antibody labels populations of cells that exist as discrete groupings of cells or are intermingled with AFP positive cells. […] Similarly, since parietal endoderm has been reported to express SOX17, antibody co-labeling with SOX17 together with the parietal markers SPARC and/or Thrombomodulin (TM) can be used to identify the SOX17^+ cells that are parietal endoderm. As shown in FIGS. 6A-C, Thrombomodulin and SOX17 co-labeled parietal endoderm cells were produced by random differentiation of hES cells.
With the SOX17 antibody and Q-PCR tools described above we have explored a number of procedures capable of efficiently programming hESCs to become SOX17^hi/AFP^lo/SPARC/TM^lo definitive endoderm cells. We applied a variety of differentiation protocols aimed at increasing the number and proliferative capacity of these cells as measured at the population level by Q-PCR for SOX17 gene expression and at the level of individual cells by antibody labeling of SOX17 protein.
To determine the effect of TGFβ factor treatment at the individual cell level, a time course of TGFβ factor addition was examined using SOX17 antibody labeling. […]

hESCs [2] = experiment: AFP antibody-labeled cell number by flow cytometry; conditions: FIGS. 9A-B
From the text: As a further evidence of the specificity of the SOX17^hi/AFP^lo/TM^lo/SPARC^lo marker profile as predictive of definitive endoderm, SOX17 and AFP gene expression was quantitatively compared to the relative number of antibody labeled cells.

B1: activin A (protein, UniProt P08476 311-426, looked up)
Inhibin beta A chain: GLECDGKVNICCKKQFFVSFKDIGWNDWIIAPSGYHANYCEGECPSHIAGTSGSSLSFHSTVINHYRMRGHSPFANLKSCCVPTKLRPMSMLYYDDGQNIIKKDIQNMIVEECGCS
modifications: Inhibin beta A chain
How did the “dose dependence of SOX17 gene expression” value (SOX17 gene expression; 0, 10, 30 or 100 ng/ml (FIG. 11)) turn out when B1 was run?
Its value is “dose-dependently increases SOX17 gene expression”.

And the “SOX17 induction compared to no factor medium controls” value (SOX17 gene expression; 4-day time point)?
The value was 5 fold.

And the “SOX17 gene expression relative to the undifferentiated control media (SR20)” value (SOX17 gene expression; FIG. 7A)?
The value was “increases SOX17 gene expression”.

What about the “induction of SOX17 gene expression vs. undifferentiated hESCs” value (SOX17 gene expression; day 4 of differentiation / four days of exposure, activin A at 100 ng/ml, 10% serum medium (FIGS. 19, 21)) of the same molecule?
Its value is 19 fold.

And the “difference in the level of SOX17 mRNA expression” value (SOX17 gene expression; hESCs treated with activin A vs retinoic acid (FIG. 7A))?
Its value is 10 fold.

And the “dose dependence of SOX17+ cell number” value (hESCs [1]; FIG. 22)?
Its value is “dose-dependent increase”.

And the “difference in SOX17 antibody-labeled cell number” value (hESCs [1]; hESCs treated with activin A vs retinoic acid (FIG. 7B))?
Its value is 10 fold.

And the “decrease in AFP antibody-labeled cell number as measured by flow cytometry” value (hESCs [2])?
The value was “approximately 7 fold”.
